Assay results: patent US20240132599A1 (GAMMADELTA THERAPEUTICS, published 2024)
Where two headings read alike, the source gives them in different places. Values belong to the binder of their own block, whether it stands above or below them.

Key:
[1] = target: T1, EGFR on A431 cells (human, UniProt P00533 25-1210); assay: flow cytometry on A431 cells, 4 C, anti-human IgG-APC secondary, median fluorescence
T1 construct: whole, on cells; also called EGFR-positive A431; EGFR+A431 target cells
Protocol: (§1) Target cells were stained with varying concentrations of antibody, followed by a fluorescent anti-human IgG detection antibody. All incubation steps were performed at 4° C. and mAb binding was determined using flow cytometry to measure the median level of fluorescence. Logarithmic four parameter dose-response curves were fitted using GraphPad Prism 9.
(§2) Target cells were detached from tissue culture flask, resuspended in PBS and seeded at a final density of 100,000 cells per well in v-bottom 96-well plates. Cells underwent centrifugation and the cell pellets were resuspended in FcR blocking reagent according to the manufacturer's instructions, and incubated for 20 minutes at 4C prior to a further wash. Antibodies were diluted to 500 nM in PBS and serially diluted 1:10 in PBS to 50 μM, and added to the cells, followed by a 20-minute incubation at 4C. To determine the quantity of mAb bound to the cell surface, the cells were then stained with a murine anti-human IgG secondary antibody, conjugated to APC (dilution: 1:100) in addition to a viability dye. Following 20-minute incubation at 4C, the cells were washed twice, and fluorescence measured using the MACSQuant.

[2] = target: T2, Vδ1 TCR on human Vδ1-positive γδ T cells (human, UniProt A0A1B0GX56 22-115); assay: flow cytometry on skin-derived Vδ1+ cells, 20 min at 4 C, anti-human Fc secondary
T2 construct: also called Vδ1 γδ T-cells; cell surface Vδ1 TCR
T2 sequence (A0A1B0GX56 22-115 limits assumed, stated change not applied): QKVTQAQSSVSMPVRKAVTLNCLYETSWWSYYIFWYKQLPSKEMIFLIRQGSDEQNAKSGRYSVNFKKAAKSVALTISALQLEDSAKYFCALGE
Protocol: Cells were washed and stained with an anti-human Fc secondary antibody (Jackson Immunoresearch) and a viability dye for dead cells (eFlour 780, Invitrogen) for 20 minutes at 4° C. The cells were washed in FACS buffer and resuspended in Cell Fix (BD sciences) before analysis on a MACSQuant Analyser 10 flow cytometer (Miltenyi).

[3] = target: T2, Vδ1 TCR on human Vδ1-positive γδ T cells; assay: flow cytometry on primary Vδ1 γδ T cells, 4 C, anti-human IgG-APC secondary, median fluorescence
Protocol: as §1, §2

[4] = target: T3, EGFR on HT-29 cells (human, UniProt P00533); assay: flow cytometry on HT-29 cells, 20 min at 4 C, anti-human IgG secondary
T3 construct: full length, cell surface; also called EGFR+ colon cancer cell line HT-29; HT-29 tumour cell
Protocol: After washing, cells were incubated for a further 20 minutes with anti-human IgG secondary antibodies (Jackson Immunoresearch) and live/dead stain (eFluor 780, Invitrogen) before washing and fixing using CellFix. The amount of antibody bound to each cell type was determined using flow cytometry (MACSQuant Analyser 10, Miltenyi Biotech).

[5] = target: T4, human EGFR, recombinant protein (human, UniProt P00533 25-645); assay: method not stated for this control
T4 construct: Bought protein; also called human EGFR antigen

[6] = target: T4, human EGFR, recombinant protein; assay: SPR
[7] = target: T5, L1 (DV1-GV4), recombinant soluble human Vδ1/Vγ4 γδ TCR heterodimer (human); assay: SPR (Reichert 4SPR): antibody on a Protein A chip, human Vδ1 antigen flowed; column 'Affinity to Vδ1 (nM)'
T5 construct: Biotinylated in the DELFIA ranking assay; also called human TRDV1; human Vδ1 antigen
T5 sequence (main, as listed by the source): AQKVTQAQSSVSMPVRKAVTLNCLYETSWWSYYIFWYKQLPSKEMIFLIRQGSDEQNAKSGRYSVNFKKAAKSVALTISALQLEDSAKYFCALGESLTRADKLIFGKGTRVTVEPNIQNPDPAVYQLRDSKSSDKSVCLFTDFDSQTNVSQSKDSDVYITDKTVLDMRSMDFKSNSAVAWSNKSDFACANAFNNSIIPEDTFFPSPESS
Protocol: Human Vδ1 antigen was flown over the cell at a 1:3 dilution series with top concentrations of 50 nM with the following parameters: 180s association, 900s dissociation, flow rate 25 μL/min, running buffer PBS+0.05% Tween-20. The chip surface was regenerated using 20 mM phosphoric acid following each injection. All experiments were performed at room temperature. Steady state fitting was determined according to Langmuir 1:1 binding using TraceDrawer software (Reichert Technologies.

[8] = target: T1, EGFR on A431 cells; assay: EGF blockade by flow cytometry: A431 cells pre-incubated with antibody 30 min at 4 C, then EGF-AF647; EGF binding MFI
Protocol: Cells were then incubated for 1 hour at 4 degrees C., washed and stained with Live/dead dye (eFluor 520, Fisher) and incubated for a further 20 min at 4 degrees. The cells were washed in FACS buffer and resuspended in Cell Fix (BD sciences) before incubating overnight at 4° C. in the dark.

[9] = target: T5, L1 (DV1-GV4), recombinant soluble human …; assay: SPR
[10] = target: T5, L1 (DV1-GV4), recombinant soluble human …; assay: SPR; remark: listed apart in the source
[11] = target: T5, L1 (DV1-GV4), recombinant soluble human …; assay: SPR; remark: listed apart in the source
[12] = target: T2, Vδ1 TCR on human Vδ1-positive γδ T cells; assay: flow cytometry binding to γδ T cells, Donor 2 (TS164); column head printed IC50 (nM), the text calls it EC50 of binding; same value in the table of FIG. 11C
Protocol: (§3) (FIGS. 11A-11B) The level of binding by the V61 mAbs to two γδ T cell donors, ATS006 (FIG. 11A) and TS164 (FIG. 11B). γδ T cells were stained with varying concentrations of Vδ1 mAbs, followed by a fluorescent anti-human IgG detection antibody (xxx). All incubation steps were performed at 4° C. and mAb binding was determined using flow cytometry to measure the median level of fluorescence. Logarithmic four parameter dose-response curves were fitted using GraphPad Prism 9.
(§4) A range of target cells were assayed to determine the specificity and affinity of Vδ1 mAb binding. This included expanded skin-derived Vδ1 γδ T-cells, HEK293T cells, Raji cells, and multiple leukocyte subsets within human primary blood mononuclear cells. Adherent or semi-adherent cells (skin-derived Vδ1 γδ T-cells, HEK293T) were detached from tissue culture flask and resuspended in PBS. Similarly, non-adherent cell types (Raji, PBMC), were harvested and resuspended in PBS. Cells were seeded at a final density of 100,000 cells per well in v-bottom 96-well plates. Cells underwent centrifugation and the cell pellets were resuspended in FcR blocking reagent according to the manufacturer's instructions, and incubated for 20 minutes at 4C prior to a further wash. […] To determine the quantity of mAb bound to the cell surface, the cells were then stained with a murine anti-human IgG secondary antibody, conjugated to APC (product code . . . , dilution: 1:100). For Vδ1 γδ T-cells, HEK293T and Raji, the cells were also stained solely with a viability dye.

[13] = target: T5, L1 (DV1-GV4), recombinant soluble human …; assay: SPR (Reichert 4SPR), antibody on Protein A chip, human Vδ1 antigen as analyte, 1:1 fit, mean of two replicates (Avg KD)
Description: The binding affinity of the antibodies to target (i.e. the Vδ1 chain of a γ TCR) is established by SPR analysis using a Reichert 4SPR instrument (Reichert Technologies).
The binding interaction of Vδ1 and the affinity-matured mAbs were modelled according to Langmuir 1:1 binding.

[14] = target: T4, human EGFR, recombinant protein; assay: SPR (Reichert 4SPR): antibody captured on a Protein A chip, human EGFR flowed at 100 nM
[15] = target: T2, Vδ1 TCR on human Vδ1-positive γδ T cells; assay: flow cytometry binding to γδ T cells, Donor 1 (ATS006); column head printed IC50 (nM), the text calls it EC50 of binding; same value in the table of FIG. 11C
Protocol: as §3, §4

[16] = target: T6, cyno antigen DV1/GV77, recombinant cynomolgus Vδ1 γδ TCR heterodimer (cynomolgus monkey); assay: DELFIA ELISA, cyno antigen, heat map; all column labels read ADT1-4-110, clone assigned by the HC/LC CDR3 pair as in FIG. 4A and FIGS. 22-23
T6 construct: also called cyno TRDV1; Cyno DV1-77; not shown: Delta-chain CDR3/J and constant part, the GV77 gamma chain, and any tags
T6 sequence (delta, as listed by the source limits assumed): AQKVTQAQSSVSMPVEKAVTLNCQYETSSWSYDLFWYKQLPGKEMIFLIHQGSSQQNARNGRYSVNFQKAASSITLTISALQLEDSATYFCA

[17] = target: T4, human EGFR, recombinant protein; assay: SPR (Reichert 4SPR): antibody captured on a Protein A chip, human EGFR flowed at 100 nM; remark: listed apart in the source
[18] = target: Vδ1 TCR on cynomolgus γδ T cells (cynomolgus monkey); assay: cell-based or functional assay
Chain of Vδ1 TCR on cynomolgus γδ T cells (cynomolgus monkey) (chain, as listed by the source): as the sequence (delta, as listed by the source limits assumed) above

Kd [6]: 8.63 nM
Kd [9]: 0.462 nM
EC50 [8]: 8.66 nM
B3: ADT1-4-2/ADT3-7 (bispecific antibody)
heavy: EVQLQQSGPGLVKPSQTLSLTCAISGDSVSSKSAAWNWIRQSPSRGLEWLGRTYYRSKWSTDYAASVKSRITINPDTSKNQLSLQLNSVTPEDTAVYYCARTWVGYVDRWGQGTLVTVSSASTKGPSVFPLAPSSKSTSGGTAALGCLVKDYFPEPVTVSWNSGALTSGVHTFPAVLQSSGLYSLSSVVTVPSSSLGTQTYICNVNHKPSNTKVDKKVEPKSCDKTHTCPPCPAPELAGAPSVFLFPPKPKDTLMISRTPEVTCVVVDVSHEDPEVKFNWYVDGVEVHNAKTKPREEQYNSTYRVVSVLTVLHQDWLNGKEYKCKVSNKALPAPIEKTISKAKGQPREPQVYTLPPSRDELEEGPVSLTCLVKGFYPSDIAVEWESTYGPENNYKTTPPVLDSDGSFFLYSKLTVSYWRWQQGNVFSCSVMHEALHNHYTQKSLSLSPG
light: DIQMTQSPPALSASVGDRVTITCRASQDINDWLAWYQHKPGKAPKLLIYDASSLESGVPLRFSGSGSGTEFTLTISSLQPDDFATYYCQQKYSAPQVTFGQGTRLEIKRTVAAPSVFIFPPSDEQLKSGTASVVCLLNNFYPREAKVQWKVDNALQSGNSQESVTEQDSKDSTYSLSSTLTLSKADYEKHKVYACEVTHQGLSSPVTKSFNRGEC
notes: mAb2; also called ADT1-4-2xLEE3

Heat Map (Cyno) value (ELISA signal) [16]: 57600
B7: ADT1-4-139 (antibody, IgG1, V domains shown)
VH: EVQLQQSGPGLVKPSQTLSLTCAISGDSVSSKSAAWNWIRQSPSRGLEWLGRTYYRSKWSTDYAASVKSRITINPDTSKNQLSLQLNSVTPEDTAVYYCARTWVGYVDYWGQGTLVTVSS
VL: DIQMTQSPPALSASVGDRVTITCRASQDINDWLAWYQHKPGKAPKLLIYDASSLESGVPLRFSGSGSGTEFTLTISSLQPDDFATYYCQQGYSTPQLTFGQGTRLEIK
notes: IgG1

Kd [6]: 2.78 nM
EC50 [2]: 0.209 nM
EC95 [2]: 2.25 nM
Kd [7]: 18.3 nM
B8: ADT1-4-138/ADT3-2 (bispecific antibody, V domains shown)
VH: EVQLQQSGPGLVKPSQTLSLTCAISGDSVSSKSAAWNWIRQSPSRGLEWLGRTYYRSKWSTDYAASVKSRITINPDTSKNQLSLQLNSVTPEDTAVYYCARTWADYVDVWGQGTLVTVSS
VL: DIQMTQSPPALSASVGDRVTITCRASQDINDWLAWYQHKPGKAPKLLIYDASSLESGVPSRFSGSGSGTEFTLTISSLQPDDFATYYCQQRYSTDQVTFGQGTRLEIK
notes: mAb2, human IgG1; light constant region not tied; also called ADT1-4-138 × LEE; ADT1-4-138xADT3-2

binding result [1]: no binding (tested: 500 nM)
Kd [9]: 0.522 nM
binding result [17]: no binding (tested: 100 nM)
EC50 (read off the curve), TCR downregulation, donor AD8170 [18]: 4 to 5 nM
EC50 (read off the curve), TCR downregulation, donor AM945BA [18]: ~2 nM
B9: ADT1-4-2 (antibody, IgG1, V domains shown)
VH: EVQLQQSGPGLVKPSQTLSLTCAISGDSVSSKSAAWNWIRQSPSRGLEWLGRTYYRSKWSTDYAASVKSRITINPDTSKNQLSLQLNSVTPEDTAVYYCARTWVGYVDRWGQGTLVTVSS
VL: DIQMTQSPPALSASVGDRVTITCRASQDINDWLAWYQHKPGKAPKLLIYDASSLESGVPLRFSGSGSGTEFTLTISSLQPDDFATYYCQQKYSAPQVTFGQGTRLEIK
notes: IgG1

Second part, the binder before the results:

B1: D1.3xFS1-67 control (bispecific antibody, V domains shown)
VH: QVQLQESGPGLVRPSQTLSLTCTVSGSTFSGYGVNWVRQPPGRGLEWIGMIWGDGNTDYNSALKSRVTMLVDTSKNQFSLRLSSVTAADTAVYYCARERDYRLDYWGQGSLVTVSS
VL: DIQMTQSPSSLSASVGDRVTITCRASGNIHNYLAWYQQKPGKAPKLLIYYTTTLADGVPSRFSGSGSGTDYTFTISSLQPEDIATYYCQHFWSTPRTFGQGTKVEIKR
notes: Only one entry is named for the whole molecule; it may hold heavy and light chains together; also called D1.3 FS1-67
EC50 (read off the curve) [1]: ~8 nM
MFI (at saturation) [2]: ~0.495 MFI
binding result [3]: no binding (tested: 500 nM)
EC50 [4]: 0.281 nM
Kd [5]: 1 nM

B2: ADT1-4-2/ADT3-2 (bispecific antibody)
heavy: EVQLQQSGPGLVKPSQTLSLTCAISGDSVSSKSAAWNWIRQSPSRGLEWLGRTYYRSKWSTDYAASVKSRITINPDTSKNQLSLQLNSVTPEDTAVYYCARTWVGYVDRWGQGTLVTVSSASTKGPSVFPLAPSSKSTSGGTAALGCLVKDYFPEPVTVSWNSGALTSGVHTFPAVLQSSGLYSLSSVVTVPSSSLGTQTYICNVNHKPSNTKVDKKVEPKSCDKTHTCPPCPAPELAGAPSVFLFPPKPKDTLMISRTPEVTCVVVDVSHEDPEVKFNWYVDGVEVHNAKTKPREEQYNSTYRVVSVLTVLHQDWLNGKEYKCKVSNKALPAPIEKTISKAKGQPREPQVYTLPPSRDELEEGPVSLTCLVKGFYPSDIAVEWESTYGPENNYKTTPPVLDSDGSFFLYSKLTVSYWRWYKGNVFSCSVMHEALHNHYTQKSLSLSPG
light: DIQMTQSPPALSASVGDRVTITCRASQDINDWLAWYQHKPGKAPKLLIYDASSLESGVPLRFSGSGSGTEFTLTISSLQPDDFATYYCQQKYSAPQVTFGQGTRLEIKRTVAAPSVFIFPPSDEQLKSGTASVVCLLNNFYPREAKVQWKVDNALQSGNSQESVTEQDSKDSTYSLSSTLTLSKADYEKHKVYACEVTHQGLSSPVTKSFNRGEC
notes: mAb2; also called ADT1-4-2 × LEE; ADT1-4-2xLEE
Kd [6]: 1.49 nM
EC50 [2]: 0.276 nM
EC95 [2]: 2.7 nM
EC50 (read off the curve) [3]: ~0.8 nM
Kd [7]: 0.24 nM
EC50 [4]: 0.537 nM
EC50 [8]: 2.92 nM

B4: ADT1-4-1 (antibody, IgG1, V domains shown)
VH: EVQLQQSGPGLVKPSQTLSLTCAISGDSVSSKSAAWNWIRQSPSRGLEWLGRTYYRSKWSTDYAASVKSRITINPDTSKNQLSLQLNSVTPEDTAVYYCARTWVGYADVWGQGTLVTVSS
VL: DIQMTQSPPALSASVGDRVTITCRASQDINDWLAWYQHKPGKAPKLLIYDASSLESGVPLRFSGSGSGTEFTLTISSLQPDDFATYYCQQRYSTPIVTFGQGTRLEIK
notes: IgG1
Kd [10]: 0.08 nM
Kd [11]: 0.08 nM

B5: ADT1-4-6/ADT3-2 (bispecific antibody, V domains shown)
VH: EVQLQQSGPGLVKPSQTLSLTCAISGDSVSSKSAAWNWIRQSPSRGLEWLGRTYYRSKWSTDYAASVKSRITINPDTSKNQLSLQLNSVTPEDTAVYYCARTWAGYPDVWGQGTLVTVSS
VL: DIQMTQSPPALSASVGDRVTITCRASQDINDWLAWYQHKPGKAPKLLIYDASSLESGVPLRFSGSGSGTEFTLTISSLQPDDFATYYCQQKYKTPQVTFGQGTRLEIK
notes: mAb2, human IgG1; light constant region not tied; also called ADT1-4-6 × LEE
Kd [6]: 0.655 nM
EC50 [2]: 0.279 nM
EC95 [2]: 2.77 nM
Kd [7]: 1.26 nM

B6: ADT1-4 (parental) (antibody, IgG1, V domains shown)
VH: QVQLQQSGPGLVKPSQTLSLTCAISGDSVSSKSAAWNWIRQSPSRGLEWLGRTYYRSKWSTDYAASVKSRITINPDTSKNQLSLQLNSVTPEDTAVYYCARTWSGYVDVWGQGTLVTVSS
VL: DIQMTQSPPALSASVGDRVTITCRASQDINDWLAWYQHKPGKAPKLLIYDASSLESGVPSRFSGSGSGTEFTLTISSLQPDDFATYYCQQSYSTPQVTFGQGTRLEIK
notes: IgG1; also called G04; 1245_P02_G04
EC50 [12]: 576 nM
Kd [9]: 115 nM
Kd [13]: 149 nM
binding result [14]: no binding (tested: 100 nM)
EC50 [15]: 108 nM
